In patent publication US20090214553A1:

Target: human CTLA-4-murine Ig fusion protein (human) (UniProt P16410)
Assay: sandwich ELISA on the CTLA4-muIg standard with the blocking pair BNI3 (coated) and biotinylated AS-33 (detecting)

- limit of sensitivity: 6.25 ng/mL
Substance: BNI3, CTLA-4 blocking mouse IgG2a mAb (antibody)
